Consider 1 molecule from patent US20040214773A1 (UNIVERSITY OF CHICAGO, published 2004).

This assay has as its target human cathepsin B (human, UniProt P07858 80-333). Description: second-order association rate constant from continuous hydrolysis of (Z-FR)2-R110, pseudo-first order conditions, 20 nM cathepsin B, 200 or 400 nM Spi2A. As for the experimental part: Kinetics of cathepsin B inhibition by Spi2A. […] Briefly, 20 nM cathepsin B was added to 5 μM substrate, in presence or in absence of 200 or 400 nM (10- or 20-fold excess respectively) of Spi2A in activation buffer. Reactions were performed in 96-well microtitre plates. The final reaction volume was 200 μl. The rate of substrate hydrolysis was continuously monitored for 3 min. The dead time for the measurement (the time between the addition of the enzyme to the substrate (with or without inhibitor) and the first spectrophotometric measurement was ˜30 s.

B1: Spi2A-3xFLAG (murine serine protease inhibitor 2A with a C-terminal 3xFLAG epitope tag) (other)
chain: MAGVSPAVFGCPDVTLGRNTAVREVQENVTSVDSLTLVSSNTDFAFSLYRKLVLKNPDENVVFSPFSICTALALLSLGAKSNTLKEILEGLKFNLTETPEPDIHQGFRYLLDLLSQPGNQVQISTGSALFIEKHLQILAEFKEKARALYQAEAFTADFQQPLKATKLINDYVSNHTQGKIKELISGLKESTLMVLVNYIYFKGKWKNPFDPNDTFKSEFYLDEKRSVIVSMMKTGYLTTPYFRDEELSCTVVELKYTGNASAMFILPDQGRMQQVEASLQPETLRKWKNSLKPRMIHELRLPKFSISTDYSLEHILPELGIREVFSTHADLSAITGTKDLRVSQVVHKAVLDVAEKGTEAAAATGMAGVGCCAVFDFLEIFFNRPFLMIISDTKAHIALFMAKVTNPERSTNFPNGEGASSQRLESKRLCFGDPLCLIGQ
notes: Purified from lysates of RelA-/- MEFs transduced with retrovirus encoding Spi2A-3xFLAG (ion exchange, then anti-FLAG column); The ORF was amplified from T cell cDNA; also called FLAG-tagged Spi2A; not shown: C-terminal 3xFLAG (22 amino acids) from the 3xFLAG-CMV-14 vector
B1: the kon (commonly a measure of how fast the partners come together) is over 1e+06 M⁻¹ s⁻¹.
